Test results published in EP1418184A1.

Target: IL-12 receptor on activated peripheral blood lymphocytes (human) (UniProt P42701)
Assay: cell-based or functional assay

In the case of HRS3-scFv-hi-IL-12 fusion protein, the IFN-gamma secretion of preactivated T cells (ELISA, 48 h), activity against natural IL-12 at equimolar amounts (times lower than IL-12) is reported as 5 to 10.
